# Source: article PMC2603668, “Rhabdovirus Matrix Protein Structures Reveal a Novel Mode of Self-Association” (PLoS Pathogens, 2008)
# Target: the molecule itself
# Assay: crystal structure
protein,measurement,value
"matrix (M) protein from Lagos bat virus (natural protein, also called LBV M; full-length LBV M) MNFLRKIVKNCKDEEIPKPGTPSAPPDDDDLWMPPPEYVPLTQIKGKENVRNFCINGEIKICSPNGYSFRILRHILKSFDNVYSGNRRLIGVVKVVIGLVLSASPVPEGMNWVYKLRRTLIFQWAESHGPLEGEELEYSQEITWDDEAEFVSLQIRVSAKQCHIQGRLWCINMNSKACQLWADMGLKTQQSQEDENTSLLLE",binding result,binds
